This note sets out measurements from article PMC7822688, “W196 and the β-Hairpin Motif Modulate the Redox Switch of Conformation and the Biomolecular Interaction Network of the Apoptosis-Inducing Factor” (Oxidative Medicine and Cellular Longevity, 2021).

Entries after “also recorded” stand apart in the source; their conditions may differ. Read-outs that look alike come from different tables or passages of the source.

A short description of data set [1]: Steady-state DCPIP-dependent diaphorase (NADH oxidase) activity. The data set is classed as biochemical. The settings on record: steady-state, NADH donor, 95 μM DCPIP acceptor, 25°C, 50 mM potassium phosphate, pH 7.4 (table footnote). The text has this: […] When saturation profiles on the pyridine nucleotide concentration were observed, kinetic constants were estimated by fitting initial reaction rates at different coenzyme concentrations to the Michaelis-Menten equation: (2) ν/e=kcat NADH/KmNADH+NADH,ν/e=kcat/KmNADHNADH/1+kcat/KmNADHNADH/kcat, where v stands for the initial velocity, e is the enzyme concentration, Km^NADH is the Michaelis constant for the enzyme-NADH complex, kcat is the turnover number of the enzyme, and kcat/Km^NADH is the enzyme catalytic efficiency.

The target in another data set is T1, CypA (Homo sapiens, UniProt P62937).
T1 construct: His6 (N); made in house; host or cells: E. coli C41 (DE3)
Kind of data set: ITC binary interaction with CypA. The data set is classed as binding. Conditions: oxidized hAIF∆1-101 titrated with CypA, 25°C, pH 7.4. The procedure: (§1) ITC assays were carried out using an Auto-iTC200 (MicroCal, Malvern-Panalytical, Malvern, UK) thermostated at 25 °C. Typically, […] protein partner and dsDNA samples—prepared as described below—were used to titrate ~10 μM hAIF∆1-101 variants. All solutions were degassed at 15°C for 1 min before each assay. A sequence of 2 μL injections of titrant solution every 150 s was programmed, and the stirring speed was set to 750 rpm. The association constant (Ka), the enthalpy of binding (ΔH), and the binding stoichiometry (N) were estimated through nonlinear least-squares regression of the experimental data employing a single-ligand binding site model implemented in Origin 7.0 (OriginLab, Northampton, MA). The dissociation constant (Kd), the free energy change (ΔG), and the entropy change (ΔS) were obtained from basic thermodynamic relationships.

The next data set has as its target dsDNA. The experiment in a line: ITC binary interaction with dsDNA. It counts as binding. Conditions: oxidized hAIF∆1-101 titrated with 15-bp dsDNA, 25°C, pH 7.4. The procedure:
as §1
Since hAIF binds DNA unspecifically, a 0.5 mM dsDNA sample was prepared from 1 mM solutions of HPLC-purified forward and a reverse complementary 15-bp oligonucleotides (5′- GGT TAG TTA TGC GCG -3′; randomly designed) synthetized by Integrated DNA Technologies. The pair of oligonucleotides was mixed at an equimolar ratio and annealed by heating 1 min at 99°C and performing a 3 h temperature scanning from 95 to 25°C, decreasing 1°C each 3 min. 0.5 mM dsDNA stock solutions were obtained.

Data set [2] can be described thus: Stopped-flow CTC formation on mixing photoreduced hAIF∆1-101 with NAD+. The data set is classed as biochemical. Conditions: anaerobic, 25°C, pH 7.4. Here is the method:
Stopped-flow spectrophotometry was also used to evaluate the rate constants of CTC formation when mixing photoreduced hAIF∆1-101 (hAIF∆1-101phrd) with increasing concentrations of NAD^+ (0.125-5 mM) under anaerobic conditions. hAIF∆1-101phrd samples were obtained by photoreduction in the presence of 5 μM methyl viologen, 3 μM 5-deazariboflavin, and 20 mM EDTA. The assays were performed at 25 °C in 50 mM potassium phosphate, pH 7.4, under anaerobic conditions (obtained by several cycles of vacuum application and bubbling with O2 free argon). Data were global fitted to a single step model (A→B), and kobs were determined at the different NAD^+ concentrations assayed. These values were then fitted to the equation that describes the formation of a transient hAIF∆1-101phrd:NAD^+ complex prior to the CTC stabilization: (4) kobs=kCTCNAD^+/KdNAD++NAD^+, in which kCTC is the limiting rate constant for the rearrangement of the encounter complex to form the CTC, and Kd^NAD+ is the dissociation constant for the mentioned transient encounter complex.

The nature of data set [3]: Stopped-flow reduction of hAIF∆1-101ox by NADH (hydride transfer). The data set is classed as biochemical. Conditions: pre-steady-state, 25°C, pH 7.4. The procedure: A SX18.MV stopped-flow spectrophotometer (Applied Photophysics Ltd., Surrey, UK), interfaced with the ProData-SX software and a photodiode array detector, was used to investigate the fast kinetic reduction of the hAIF variants by the NADH coenzyme. Samples of ~10 μM hAIF∆1-101ox were mixed with increasing concentrations of NADH (0.03-10 mM) under aerobic conditions in 50 mM potassium phosphate, pH 7.4, at 25 °C. The enzyme and NADH concentrations are the final ones obtained after mixing equal volumes of substrate and enzyme. Observed rate constants for the hydride transfer (HT) event (kobs) were calculated by global analysis and numerical integration methods (simultaneously using all spectral data in the 400-800 nm region along time evolution). A single-step model (A→B) best fitted to describe the overall reaction at all NADH concentrations assayed. Averaged kobs values at each NADH concentration were then fitted to the equation that describes the formation of an enzyme:substrate complex prior to the HT event: (3) kobs=kHTNADH/KdNADH+NADH+krev, where kHT is the limiting rate constant for HT from the pyridine nucleotide coenzyme to the FAD cofactor of hAIF, Kd^NADH is the dissociation constant of the transient hAIF∆1-101ox:NADH complex, and krev is the reaction constant for a potential overall reverse process.

Data set [4] in a line: Reactivity of the CTC towards molecular oxygen (CTC half-life). The settings on record: 25°C, air saturated 50 mM potassium phosphate, pH 7.4. The data set is classed as biochemical. The procedure: The reactivity of the CTC towards molecular oxygen was monitored by full reduction of hAIF∆1-101 samples with NADH (1.5-fold the concentration of the protein) in 50 mM phosphate buffer, pH 7.4, and following their reoxidation in a Cary 100 spectrophotometer (Agilent, Santa Clara, CA). Absorption spectra were recorded at 25 °C until full oxidation of the flavin cofactor was achieved. For each time, the percent remaining of CTC versus reoxidation by molecular oxygen was estimated as ΔAt/ΔAmax, where ΔAmax is the difference between the minimum and the maximum absorbance at 700 nm, and ΔAt is the difference of each value at 700nm minus the minimum absorbance at 700 nm. The CTC half-life is the time at which 50% of CTC still remains.

The target in a further data set is T2, CHCHD4 (Homo sapiens, UniProt Q8N4Q1).
T2 construct: His6 (N); made in house; host or cells: E. coli C41 (DE3)
T2 sequence (Q8N4Q1 1-142): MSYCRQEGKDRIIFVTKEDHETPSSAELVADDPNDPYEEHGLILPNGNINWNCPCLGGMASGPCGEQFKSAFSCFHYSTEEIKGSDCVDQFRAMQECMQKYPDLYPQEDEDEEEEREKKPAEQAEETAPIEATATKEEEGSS
Kind of data set: ITC binary interaction with CHCHD4. The data set is classed as binding. Conditions: 25°C, pH 7.4. Here is the method:
as §1

In data set [5] the target is T3, W196A hAIF_(Δ1-101) (human, UniProt O95831 102-613, W196A).
T3 construct: FAD holoprotein; 'ox' oxidized, 'CTC' after reduction with NADH; The His6 tag is called cleavable; whether it was cleaved is told only in the supplementary materials; also called W196Aox; source: E. coli C41 (DE3), purified to homogeneity (protocol in the supplementary materials)
Kind of data set: ITC; Auto-iTC200, 25°C, 50 mM potassium phosphate, pH 7.4; 10-20 μM protein partner titrated into ~10 μM oxidized hAIF_(∆1-101) variant, without NADH; single-ligand binding site model. The settings on record: both partners purified.

For data set [6], the target named is T3, W196A hAIF_(Δ1-101). Kind of data set: ITC; Auto-iTC200, 25°C, 50 mM potassium phosphate, pH 7.4; 10-20 μM protein partner titrated into ~10 μM hAIF_(∆1-101) variant in the CTC state (premixed with NADH at a 1 : 100 ratio); single-ligand binding site model. The settings on record: both partners purified. In general terms: ITC needs no label: the signal is the heat of the interaction.

Data set [7] concerns the target T4, WT human apoptosis-inducing factor hAIF_(Δ1-101) (human, UniProt O95831 102-613).
T4 construct: FAD holoprotein. 'ox' is the oxidized protein; 'CTC' is the same protein reduced by an excess of NADH (FADH-/NAD+ charge transfer complex); The His6 tag is called cleavable; whether it was cleaved is told only in the supplementary materials; also called WTox; source: protocol in the supplementary materials
The description is as above. Conditions: both partners purified.

The next data set deals with T5, W196Y hAIF_(Δ1-101) (human, UniProt O95831 102-613, W196Y).
T5 construct: FAD holoprotein; 'ox' oxidized, 'CTC' after reduction with NADH; The His6 tag is called cleavable; whether it was cleaved is told only in the supplementary materials; also called W196Yox; W196Y CTC; source: E. coli C41 (DE3), purified to homogeneity (protocol in the supplementary materials)
Described as above. Conditions: both partners purified.

Setting [8] is: CTC form titrated with CHCHD4, ITC.

T3 sequence (O95831 102-613 W196A): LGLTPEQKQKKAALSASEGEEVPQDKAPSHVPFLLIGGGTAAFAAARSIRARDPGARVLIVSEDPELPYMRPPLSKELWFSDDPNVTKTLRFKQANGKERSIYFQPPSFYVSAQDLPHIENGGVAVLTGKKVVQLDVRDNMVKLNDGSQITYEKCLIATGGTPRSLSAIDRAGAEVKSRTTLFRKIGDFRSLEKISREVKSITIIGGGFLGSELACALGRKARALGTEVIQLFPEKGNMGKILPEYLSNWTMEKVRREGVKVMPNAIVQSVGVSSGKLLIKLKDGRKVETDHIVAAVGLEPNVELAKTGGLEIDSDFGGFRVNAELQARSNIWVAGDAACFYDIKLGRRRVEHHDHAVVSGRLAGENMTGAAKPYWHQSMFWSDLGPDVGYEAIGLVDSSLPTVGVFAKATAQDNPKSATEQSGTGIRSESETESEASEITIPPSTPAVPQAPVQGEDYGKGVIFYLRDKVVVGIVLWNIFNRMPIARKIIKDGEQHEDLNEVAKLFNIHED
T1 sequence (P62937 whole entry): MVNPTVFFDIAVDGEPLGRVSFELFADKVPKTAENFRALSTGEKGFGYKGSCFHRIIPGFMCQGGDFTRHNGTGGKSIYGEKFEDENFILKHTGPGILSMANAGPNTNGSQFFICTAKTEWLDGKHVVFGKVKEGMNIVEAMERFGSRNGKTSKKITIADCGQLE
T5 sequence (O95831 102-613 W196Y): as the sequence (O95831 102-613 W196A) above, with A95Y counted along it
T4 sequence (O95831 102-613, stated change not applied): as the sequence (O95831 102-613 W196A) above, with A95W counted along it

On to “WT: wild-type human apoptosis-inducing factor, soluble form hAIF∆1-101 (UniProtKB O95831); ox = oxidized, CTC = NADH-reduced charge transfer complex”, for which the “ΔH (unfolding enthalpy)” value (CTC hAIF∆1-101rd:NAD^+, 100-fold excess NADH) turned out to be 628 ± 17 kJ/mol and the “ΔH (unfolding enthalpy)” value (hAIF∆1-101ox, pH 7.4, ionic strength 150 mM) is 536 ± 13 kJ/mol. Further, the “T m CTC ^FAD” value (CTC hAIF∆1-101rd:NAD^+, 100-fold excess NADH, pH 7.4, ionic strength 150 mM) was determined as 324 ± 1 K. Moreover, the “T m CTC ^FAD − Tm^FAD” value (CTC state relative to oxidized state of the same variant) is on record as −13 ± 2 K. In addition, under “hAIF∆1-101ox, ~2 μM protein, 50 mM potassium phosphate, pH 7.4, ionic strength 150 mM”, the “T m ^FAD” value turned out to be 337 ± 1 K. Moreover, the “K m ^NADH” value in [1] amounted to 495 ± 170 µM. The molecule also registered a k cat in data set [1] (n = 3, mean ± SD) of 0.9 ± 0.1 s⁻¹. Further, the “-TΔS” value in the data set with CypA came to 72 kJ/mol; with CHCHD4 (setting [8]) it was 47.7 kJ/mol. Besides, the ΔG with CypA is -30.5 kJ/mol; with CHCHD4 (setting [8]), -36.4 kJ/mol. In addition, the ΔH with CypA is -103 kJ/mol; with CHCHD4 (setting [8]), -84.1 kJ/mol. Also, the Kd is 1.6 µM on dsDNA; 2080 ± 250 µM in data set [2] (transient hAIF∆1-101phrd:NAD+ complex, read-out: K d ^NAD+); 4090 ± 300 µM in data set [3] (transient hAIF∆1-101ox:NADH complex, read-out: K d ^NADH); 0.2 µM with CHCHD4 (CTC form (premixed with NADH 1:100) titrated with CHCHD4, ITC, read-out: K d); “heat exchange was not observed; also recorded: No detected binding” in the data set with CHCHD4 (oxidized hAIF∆1-101 titrated with CHCHD4, ITC, 50 mM potassium phosphate, listed as WTox). Besides, the “k CTC” value in data set [2] (hAIF∆1-101phrd variants mixed with NAD+) amounted to 45 ± 2 s⁻¹. The “k CTC/Kd^NAD+” value in data set [2] (hAIF∆1-101phrd variants) stood at 22000 ± 3000 M⁻¹ s⁻¹. For the same molecule, in data set [3], the “k HT/Kd^NADH” value stood at 400 ± 100 M⁻¹ s⁻¹. Also, the “k HT” value in data set [3] (hydride transfer from NADH to FAD, aerobic, 50 mM potassium phosphate) turned out to be 1.5 ± 0.1 s⁻¹. Moreover, the “CTC half-life versus reoxidation by O2” value in data set [4] is 1.2 h.

B1: human CHCHD4 (coiled-coil-helix-coiled-coil-helix domain containing 4) (natural protein, UniProt Q8N4Q1 1-142, looked up)
chain: T2 sequence (Q8N4Q1 1-142)
notes: human CHCHD4, UniProtKB Q8N4Q1; synthetic codon-optimised cDNA in pET28a (NdeI-NotI); The His6 tag is called cleavable; whether it was cleaved is told only in the supplementary materials; source: E. coli C41 (DE3), purified (protocol in the supplementary materials)
As for B1, the Kd worked out at 0.4 µM with W196A hAIF_(Δ1-101) [5], 0.5 µM in the data set with W196A hAIF_(Δ1-101) [6], 0.2 µM in [7] and 2.1 µM in the data set with W196Y hAIF_(Δ1-101). For the same molecule, the dH is 40.2 kJ/mol in the data set with W196A hAIF_(Δ1-101) [5], -24.7 kJ/mol in the data set with W196A hAIF_(Δ1-101) [6], -84.1 kJ/mol in data set [7] and -34.3 kJ/mol with W196Y hAIF_(Δ1-101).
